This passage reports Kd results from patent US20240148898A1 (CELLEMEDY, published 2024).

Test [1] has as its target T1, human transferrin receptor (human, UniProt P02786 89-760, limits assumed).
T1 construct: also called TfR Human
The experiment in a line: MST (Monolith NT.115), His-tag-dye-labelled protein, TfR titrated. On the procedure:
(§1) First, 100 μl of dye that specifically binds to a hexa-His tag (RED-tris-NTA 2nd Generation Dye) was prepared at a concentration of 50 nM, along with 100 μl of the produced protein at a concentration of 200 nM, followed by mixing the same and incubating at room temperature for 30 minutes. The incubated product was centrifuged at 13000 rpm for 10 minutes at 4° C. by a centrifuge, thus to separate the supernatant and obtain a dye-labeled protein.
(§2) Then, 25 μl of 9.65 μM transferrin receptor was added to the 1st PCR tube; 10 μl of PBS-T (PBS+0.5% tween 20) buffer was added to 2nd to 16th PCR tubes; 10 μl of transferrin in the 1st PCR tube was transferred to the 2nd PCR tube; and 10 μl was again transferred from the 2nd PCR tube to the 3rd PCR tube. Likewise, this procedure was continued up to the 16th tube thus to perform ½ dilution in a sequential order so that each of the 2nd to 16th PCR tubes becomes 20 μl.
(§3) Thereafter, 10 μl of the dye-labeled protein was added to each PCR tube, and the reaction was performed at room temperature for 1 hour.

Test [2] deals with T2, mouse transferrin receptor (mouse, UniProt Q62351 89-763, limits assumed).
T2 construct: also called TfR Mouse
T2 sequence (Q62351 89-763 limits assumed): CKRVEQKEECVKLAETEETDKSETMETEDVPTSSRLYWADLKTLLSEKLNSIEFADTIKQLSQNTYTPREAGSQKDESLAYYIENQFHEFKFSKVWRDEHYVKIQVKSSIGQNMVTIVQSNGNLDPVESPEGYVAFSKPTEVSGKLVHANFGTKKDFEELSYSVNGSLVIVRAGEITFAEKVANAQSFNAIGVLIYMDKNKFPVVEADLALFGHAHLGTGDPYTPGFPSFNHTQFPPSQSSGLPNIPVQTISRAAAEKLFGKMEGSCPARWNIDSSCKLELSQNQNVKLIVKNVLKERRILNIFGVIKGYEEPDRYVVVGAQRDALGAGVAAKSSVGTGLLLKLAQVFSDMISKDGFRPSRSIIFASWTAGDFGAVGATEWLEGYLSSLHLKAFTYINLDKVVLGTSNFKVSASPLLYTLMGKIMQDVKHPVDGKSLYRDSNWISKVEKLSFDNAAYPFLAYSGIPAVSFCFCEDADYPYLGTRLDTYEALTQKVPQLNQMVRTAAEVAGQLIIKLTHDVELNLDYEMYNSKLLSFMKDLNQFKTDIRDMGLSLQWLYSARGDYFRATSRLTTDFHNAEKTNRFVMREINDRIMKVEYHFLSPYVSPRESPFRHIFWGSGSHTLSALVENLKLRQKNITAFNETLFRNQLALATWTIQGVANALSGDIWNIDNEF
The test is described as above. On the procedure:
as §1, §2, §3

The target of test [3] is T3, transferrin receptor (TfR), species not stated.
T3 construct: also called the transferrin receptor
T3 sequence (P02786 whole entry): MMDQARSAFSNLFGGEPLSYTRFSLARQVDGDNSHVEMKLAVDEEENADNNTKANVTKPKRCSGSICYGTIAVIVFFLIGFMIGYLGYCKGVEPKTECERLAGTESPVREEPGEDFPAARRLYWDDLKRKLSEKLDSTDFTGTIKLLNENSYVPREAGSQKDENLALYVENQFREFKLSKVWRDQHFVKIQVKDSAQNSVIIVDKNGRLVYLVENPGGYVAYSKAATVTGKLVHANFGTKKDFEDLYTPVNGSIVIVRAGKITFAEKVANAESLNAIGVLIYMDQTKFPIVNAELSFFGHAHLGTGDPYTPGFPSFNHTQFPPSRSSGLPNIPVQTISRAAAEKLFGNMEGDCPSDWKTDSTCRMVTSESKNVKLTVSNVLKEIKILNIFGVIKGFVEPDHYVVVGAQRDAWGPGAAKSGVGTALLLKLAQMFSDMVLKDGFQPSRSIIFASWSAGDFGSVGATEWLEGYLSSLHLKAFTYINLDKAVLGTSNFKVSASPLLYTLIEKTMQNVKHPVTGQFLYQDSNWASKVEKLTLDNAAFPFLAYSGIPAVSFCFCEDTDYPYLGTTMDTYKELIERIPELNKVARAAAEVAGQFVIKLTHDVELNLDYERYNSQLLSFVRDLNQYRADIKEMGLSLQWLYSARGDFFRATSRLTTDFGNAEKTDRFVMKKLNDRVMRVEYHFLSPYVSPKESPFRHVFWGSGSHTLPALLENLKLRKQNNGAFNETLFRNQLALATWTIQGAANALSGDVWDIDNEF
The experiment in a line: Microscale Thermophoresis (MST) with the transferrin receptor, Example 5; species of TfR not given on the sheet or in the legend (value coincides with the Mouse TfR row of Table 5). On the technique in general: MST reads how a fluorescent partner responds to local heating, with and without ligand.

T1 sequence (P02786 89-760 limits assumed): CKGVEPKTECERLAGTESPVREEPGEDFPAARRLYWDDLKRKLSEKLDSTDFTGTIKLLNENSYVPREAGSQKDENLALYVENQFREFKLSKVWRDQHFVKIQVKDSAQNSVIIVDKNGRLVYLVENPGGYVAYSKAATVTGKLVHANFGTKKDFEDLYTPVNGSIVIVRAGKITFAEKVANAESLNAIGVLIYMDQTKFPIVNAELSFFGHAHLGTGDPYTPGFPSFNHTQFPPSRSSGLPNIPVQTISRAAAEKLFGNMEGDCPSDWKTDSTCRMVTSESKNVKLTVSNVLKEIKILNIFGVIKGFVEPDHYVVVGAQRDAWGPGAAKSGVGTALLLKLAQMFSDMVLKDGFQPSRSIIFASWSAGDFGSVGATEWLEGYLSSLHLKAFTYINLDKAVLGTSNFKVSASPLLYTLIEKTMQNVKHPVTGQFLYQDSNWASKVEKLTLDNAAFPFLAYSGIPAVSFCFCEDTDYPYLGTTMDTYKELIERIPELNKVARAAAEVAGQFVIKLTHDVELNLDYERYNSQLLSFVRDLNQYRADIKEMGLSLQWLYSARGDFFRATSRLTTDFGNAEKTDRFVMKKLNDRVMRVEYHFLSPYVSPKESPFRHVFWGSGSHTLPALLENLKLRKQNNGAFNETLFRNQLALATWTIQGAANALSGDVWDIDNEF

B1: EC-gp100-huHF (other)
chain: MHHHHHHEFTTASTSQVRQNYHQDSEAAINRQINLELYASYVYLSMSYYFDRDDVALKNFAKYFLHQSHEEREHAEKLMKLQNQRGGRIFLQDIKKPDCDDWESGLNAMECALHLEKNVNQSLLELHKLATDKNDPHLCDFIETHYLNEQVKAIKELGDHVTNLRKMGAPESGLAEYLFDKHTLGDSKVPRNQDWLDNES
modifications: One monomer is given; the particle is a self-assembled 24-mer. In the MST assay the His tag carried RED-tris-NTA dye non-covalently.
notes: also called gp100 fused between E helix and C-terminus; TSA insertion site EC, gp100
In general, Kd refers to a measure of binding affinity in units of concentration. A higher Kd goes with lower affinity. Turning to B1, binding in test [1] was characterised by a dissociation constant (Kd) of 5.68 nM.

B2: BC-gp100-huHF (other)
chain: HHHHHHMTTASTSQVRQNYHQDSEAAINRQINLELYASYVYLSMSYYFDRDDVALKNFAKYFLHQSHEEREHAEKLMKLQNQRGGRIFLQDIKKPDCDDKVPRNQDWLWESGLNAMECALHLEKNVNQSLLELHKLATDKNDPHLCDFIETHYLNEQVKAIKELGDHVTNLRKMGAPESGLAEYLFDKHTLGDSDNES
notes: also called gp100-huHF (BC loop); TSA insertion site BC, gp100
Consider B2, for which the dissociation constant (Kd) in test [1] came out at 14 nM; in test [2] it was 48 nM.

B3: BC-AH1-huHF (other)
chain: HHHHHHMTTASTSQVRQNYHQDSEAAINRQINLELYASYVYLSMSYYFDRDDVALKNFAKYFLHQSHEEREHAEKLMKLQNQRGGRIFLQDIKKPDCDDSPSYVYHQFWESGLNAMECALHLEKNVNQSLLELHKLATDKNDPHLCDFIETHYLNEQVKAIKELGDHVTNLRKMGAPESGLAEYLFDKHTLGDSDNES
notes: also called AH1-huHF (BC loop); TSA insertion site BC, AH1
Molecule B3 had a Kd in test [1] of 107 nM.

B4: AB-gp100-huHF (other)
chain: HHHHHHMTTASTSQVRQNYHQDSEAAINRQINLELYASYVYLSMSYYFDRDDKVPRNQDWLVALKNFAKYFLHQSHEEREHAEKLMKLQNQRGGRIFLQDIKKPDCDDWESGLNAMECALHLEKNVNQSLLELHKLATDKNDPHLCDFIETHYLNEQVKAIKELGDHVTNLRKMGAPESGLAEYLFDKHTLGDSDNES
notes: also called gp100-huHF (AB loop); TSA insertion site AB, gp100
As to B4, the Kd stood at 29.7 nM in test [1] and 40.8 nM in test [2].

B5: AB-AH1-huHF (other)
chain: HHHHHHMTTASTSQVRQNYHQDSEAAINRQINLELYASYVYLSMSYYFDRDDSPSYVYHQFVALKNFAKYFLHQSHEEREHAEKLMKLQNQRGGRIFLQDIKKPDCDDWESGLNAMECALHLEKNVNQSLLELHKLATDKNDPHLCDFIETHYLNEQVKAIKELGDHVTNLRKMGAPESGLAEYLFDKHTLGDSDNES
notes: also called AH1-huHF (AB loop); TSA insertion site AB, AH1
In test [1], B5 returned a Kd of 10.9 nM.

B6: DE-AH1-huHF (other)
chain: HHHHHHMTTASTSQVRQNYHQDSEAAINRQINLELYASYVYLSMSYYFDRDDVALKNFAKYFLHQSHEEREHAEKLMKLQNQRGGRIFLQDIKKPDCDDWESGLNAMECALHLEKNVNQSLLELHKLATDKNDPHLCDFIETHYLNEQVKAIKELGDHVTNLRKMGAPESPSYVYHQFSGLAEYLFDKHTLGDSDNES
notes: also called AH1-huHF (DE loop); TSA insertion site DE, AH1
With B6, binding in test [1] was put at a Kd of 6.11 nM.

B7: NA-gp100-huHF (other)
chain: MHHHHHHTTASTSKVPRNQDWLQVRQNYHQDSEAAINRQINLELYASYVYLSMSYYFDRDDVALKNFAKYFLHQSHEEREHAEKLMKLQNQRGGRIFLQDIKKPDCDDWESGLNAMECALHLEKNVNQSLLELHKLATDKNDPHLCDFIETHYLNEQVKAIKELGDHVTNLRKMGAPESGLAEYLFDKHTLGDSDNES
modifications: One monomer is given; the particle is a self-assembled 24-mer. In the MST assay the His tag carried RED-tris-NTA dye non-covalently.
notes: also called gp100 fused between N-terminus and A helix; TSA insertion site NA, gp100
B7 gave a Kd in test [1] of 152 nM.

B8: CD-gp100-huHF (other)
chain: HHHHHHMTTASTSQVRQNYHQDSEAAINRQINLELYASYVYLSMSYYFDRDDVALKNFAKYFLHQSHEEREHAEKLMKLQNQRGGRIFLQDIKKPDCDDWESGLNAMECALHLEKNVNQSLLELHKLATDKNDKVPRNQDWLPHLCDFIETHYLNEQVKAIKELGDHVTNLRKMGAPESGLAEYLFDKHTLGDSDNES
notes: also called CD-loop-gp100; huHF-CD-gp100
In the case of B8, the Kd in test [1] came to 4.89 nM; in test [2], 15.9 nM.

B9: CD-AH1-huHF (other)
chain: HHHHHHMTTASTSQVRQNYHQDSEAAINRQINLELYASYVYLSMSYYFDRDDVALKNFAKYFLHQSHEEREHAEKLMKLQNQRGGRIFLQDIKKPDCDDWESGLNAMECALHLEKNVNQSLLELHKLATDKNDSPSYVYHQFPHLCDFIETHYLNEQVKAIKELGDHVTNLRKMGAPESGLAEYLFDKHTLGDSDNES
notes: also called huHF-CD loop-AH1; CD-loop-AH1
B9: in test [1], binding was put at a Kd of 3.45 nM.

B10: DE-gp100-huHF (other)
chain: MHHHHHHLETTASTSQVRQNYHQDSEAAINRQINLELYASYVYLSMSYYFDRDDVALKNFAKYFLHQSHEEREHAEKLMKLQNQRGGRIFLQDIKKPDCDDWESGLNAMECALHLEKNVNQSLLELHKLATDKNDPHLCDFIETHYLNEQVKAIKELGDHVTNLRKMGAPEGSKVPRNQDWLEFSGLAEYLFDKHTLGDSDNES
modifications: One monomer is given; the particle is a self-assembled 24-mer. In the MST assay the His tag carried RED-tris-NTA dye non-covalently.
notes: also called huHF-DE-gp100; gp100-huHF (DE loop)
As for B10, the Kd came out at 30.5 nM in test [3], 9.78 nM in test [1] and 30.5 nM in test [2].
